Measurements: patent US20230040568A1

Biological target: KIR3DL3 protein (antigen of the affinity determination of Table 3) (human) (UniProt Q8N743)
Assay: method and antigen format not stated

Chain of KIR3DL3 protein (antigen of the affinity determination of Table 3) (human) (Q8N743 other isoform, or with tags, fused parts or gaps limits assumed): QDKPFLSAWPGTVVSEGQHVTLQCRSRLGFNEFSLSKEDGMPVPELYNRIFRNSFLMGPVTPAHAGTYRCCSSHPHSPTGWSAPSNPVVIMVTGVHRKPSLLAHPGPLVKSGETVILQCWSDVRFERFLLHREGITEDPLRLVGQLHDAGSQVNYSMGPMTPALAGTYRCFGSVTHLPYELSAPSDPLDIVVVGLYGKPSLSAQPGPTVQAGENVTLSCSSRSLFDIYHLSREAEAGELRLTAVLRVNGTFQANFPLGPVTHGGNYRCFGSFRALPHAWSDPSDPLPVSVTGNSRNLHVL

Kd: 0.26 nM
B1: monoclonal 26E2 (antibody, part only; not given: VH framework 1 and CDR1, V domains shown, part only)
VH, part: RWVKQTPGQGLEWIGYIYPGDGGTNCNQKFQGKATLTADTSSSTAYMQISSLTSEDSAVYFCARSGNYGNYEGFAFWGQGTLVTVSA
VL: DIKMTQSPSSMYASLGERVTITCKASQDTNSYLSWFQQKPGKSPKTLIYRANRLVDGVPSRFSGSGSGQDYSLTISRLEYEDMGIYYCLQYNEFPYTFGGGTKLEIKRADA
